Laboratory results taken from paper PMC5379950.

Molecular target: microtubules (MTs) assembled with taxol in M-phase Xenopus egg extract (Xenopus laevis (endogenous in egg extract))
Test: co-sedimentation

Substance “GFP-xINCENP 7A (from UniProt O13024 1-873) (natural protein)” has a fold increase in MT binding (against xINCENP) of 2 fold.
